Results: article PMC10397247
Blank lines part the entries; values can stand above or below the binder they belong to.

How the values were obtained:
O10-bS = molecular target: T1, O10-bS; assay: two-hybrid library CCNG1;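 also: natural log of median RNA to DNA barcode read ratio; higher means stronger binding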
T1 chain: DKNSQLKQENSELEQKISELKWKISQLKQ

O4-bS = molecular target: T2, O4-bS; assay: two-hybrid library CCNG1;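 also: natural log of median RNA to DNA barcode read ratio; higher means stronger binding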
T2 chain: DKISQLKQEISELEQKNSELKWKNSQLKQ

O1-bS = molecular target: T3, O1-bS; assay: two-hybrid library CCNG1;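 also: natural log of median RNA to DNA barcode read ratio; higher means stronger binding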
T3 chain: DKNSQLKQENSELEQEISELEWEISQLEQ

O8-bS = molecular target: T4, O8-bS; assay: two-hybrid library CCNG1;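 also: natural log of median RNA to DNA barcode read ratio; higher means stronger binding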
T4 chain: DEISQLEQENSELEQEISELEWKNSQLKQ

O16-bS = molecular target: T5, O16-bS; assay: two-hybrid library CCNG1;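 also: natural log of median RNA to DNA barcode read ratio; higher means stronger binding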
T5 chain: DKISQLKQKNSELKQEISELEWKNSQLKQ

O6-bS = molecular target: T6, O6-bS; assay: two-hybrid library CCNG1;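 also: natural log of median RNA to DNA barcode read ratio; higher means stronger binding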
T6 chain: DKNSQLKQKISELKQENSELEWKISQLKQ

O7-bS = molecular target: T7, O7-bS; assay: two-hybrid library CCNG1
T7 chain: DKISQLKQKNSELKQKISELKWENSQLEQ

O11-bS = molecular target: T8, O11-bS; assay: two-hybrid library CCNG1
T8 chain: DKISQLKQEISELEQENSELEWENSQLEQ

O3-bS = molecular target: T9, O3-bS; assay: two-hybrid library CCNG1
T9 chain: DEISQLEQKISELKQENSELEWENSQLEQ

O15-bS = molecular target: T10, O15-bS; assay: two-hybrid library CCNG1
T10 chain: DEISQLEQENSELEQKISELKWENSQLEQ

O9-bS = molecular target: T11, O9-bS; assay: two-hybrid library CCNG1
T11 chain: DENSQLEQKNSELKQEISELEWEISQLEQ

O13-bS = molecular target: T12, O13-bS; assay: two-hybrid library CCNG1
T12 chain: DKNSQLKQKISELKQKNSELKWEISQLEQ

O12-bS = molecular target: T13, O12-bS; assay: two-hybrid library CCNG1
T13 chain: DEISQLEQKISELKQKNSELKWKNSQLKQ

O2-bS = molecular target: T14, O2-bS; assay: two-hybrid library CCNG1
T14 chain: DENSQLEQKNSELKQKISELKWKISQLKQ

O5-bS = molecular target: T15, O5-bS; assay: two-hybrid library CCNG1
T15 chain: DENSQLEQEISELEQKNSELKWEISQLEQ

O14-bS = molecular target: T16, O14-bS; assay: two-hybrid library CCNG1
T16 chain: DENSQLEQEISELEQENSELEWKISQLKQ

Core_IIII-es_KEEE = molecular target: T17, Core_IIII-es_KEEE; assay: two-hybrid library CCmax; settings: mean of both orientations
T17 chain: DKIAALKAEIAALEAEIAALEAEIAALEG

P8A-bN = molecular target: T18, P8A-bN; assay: two-hybrid library CCNG1
T18 chain: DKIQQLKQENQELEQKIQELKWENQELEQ

4H3974-bH = molecular target: T19, 4H3974-bH; assay: two-hybrid library CCNG1
T19 chain: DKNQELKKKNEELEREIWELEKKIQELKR

4H906-bH = molecular target: T20, 4H906-bH; assay: two-hybrid library CCNG1
T20 chain: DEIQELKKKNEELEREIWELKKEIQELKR

4H3628-bH = molecular target: T21, 4H3628-bH; assay: two-hybrid library CCNG1
T21 chain: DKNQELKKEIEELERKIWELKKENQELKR

4H3638-bH = molecular target: T22, 4H3638-bH; assay: two-hybrid library CCNG1
T22 chain: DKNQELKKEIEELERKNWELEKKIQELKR

4H1449-bH = molecular target: T23, 4H1449-bH; assay: two-hybrid library CCNG1
T23 chain: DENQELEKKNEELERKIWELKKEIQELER

4H1373-bH = molecular target: T24, 4H1373-bH; assay: two-hybrid library CCNG1
T24 chain: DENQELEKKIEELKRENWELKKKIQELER

4H3129-bH = molecular target: T25, 4H3129-bH; assay: two-hybrid library CCNG1
T25 chain: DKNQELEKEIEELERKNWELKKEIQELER

4H3414-bH = molecular target: T26, 4H3414-bH; assay: two-hybrid library CCNG1
T26 chain: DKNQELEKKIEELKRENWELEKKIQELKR

4H3189-bH = molecular target: T27, 4H3189-bH; assay: two-hybrid library CCNG1
T27 chain: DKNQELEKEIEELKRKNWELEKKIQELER

4H1338-bH = molecular target: T28, 4H1338-bH; assay: two-hybrid library CCNG1
T28 chain: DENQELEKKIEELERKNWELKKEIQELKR

4H3858-bH = molecular target: T29, 4H3858-bH; assay: two-hybrid library CCNG1
T29 chain: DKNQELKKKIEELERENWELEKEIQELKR

4H1629-bH = molecular target: T30, 4H1629-bH; assay: two-hybrid library CCNG1
T30 chain: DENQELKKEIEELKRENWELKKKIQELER

4H584-bH = molecular target: T31, 4H584-bH; assay: two-hybrid library CCNG1
T31 chain: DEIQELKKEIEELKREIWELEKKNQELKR

4H1359-bH = molecular target: T32, 4H1359-bH; assay: two-hybrid library CCNG1
T32 chain: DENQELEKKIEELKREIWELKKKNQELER

4H1222-bH = molecular target: T33, 4H1222-bH; assay: two-hybrid library CCNG1
T33 chain: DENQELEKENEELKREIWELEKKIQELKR

4H1710-bH = molecular target: T34, 4H1710-bH; assay: two-hybrid library CCNG1
T34 chain: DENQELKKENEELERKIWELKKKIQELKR

4H570-bH = molecular target: T35, 4H570-bH; assay: two-hybrid library CCNG1
T35 chain: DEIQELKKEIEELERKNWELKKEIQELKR

4H619-bH = molecular target: T36, 4H619-bH; assay: two-hybrid library CCNG1
T36 chain: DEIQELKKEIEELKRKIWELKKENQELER

4H850-bH = molecular target: T37, 4H850-bH; assay: two-hybrid library CCNG1
T37 chain: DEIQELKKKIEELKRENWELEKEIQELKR

4H3172-bH = molecular target: T38, 4H3172-bH; assay: two-hybrid library CCNG1
T38 chain: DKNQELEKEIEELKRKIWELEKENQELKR

4H1393-bH = molecular target: T39, 4H1393-bH; assay: two-hybrid library CCNG1
T39 chain: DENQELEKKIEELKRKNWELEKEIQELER

4H1544-bH = molecular target: T40, 4H1544-bH; assay: two-hybrid library CCNG1
T40 chain: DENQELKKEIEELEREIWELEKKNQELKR

4H3631-bH = molecular target: T41, 4H3631-bH; assay: two-hybrid library CCNG1
T41 chain: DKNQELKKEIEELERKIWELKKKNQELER

4H3817-bH = molecular target: T42, 4H3817-bH; assay: two-hybrid library CCNG1
T42 chain: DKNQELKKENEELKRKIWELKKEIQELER

4H1804-bH = molecular target: T43, 4H1804-bH; assay: two-hybrid library CCNG1
T43 chain: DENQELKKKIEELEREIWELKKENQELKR

P5bH1 = molecular target: T44, P5bH1; assay: two-hybrid library CCNG1
T44 chain: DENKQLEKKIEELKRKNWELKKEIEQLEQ

4H741-bH = molecular target: T45, 4H741-bH; assay: two-hybrid library CCNG1
T45 chain: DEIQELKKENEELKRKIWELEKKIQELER

4H1348-bH = molecular target: T46, 4H1348-bH; assay: two-hybrid library CCNG1
T46 chain: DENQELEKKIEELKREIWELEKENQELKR

O8-bN = molecular target: T47, O8-bN; assay: two-hybrid library CCNG1
T47 chain: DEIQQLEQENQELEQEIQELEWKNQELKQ

4H1899-bH = molecular target: T48, 4H1899-bH; assay: two-hybrid library CCNG1
T48 chain: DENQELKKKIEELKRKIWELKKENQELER

4H3613-bH = molecular target: T49, 4H3613-bH; assay: two-hybrid library CCNG1
T49 chain: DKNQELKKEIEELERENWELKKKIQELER

4H1985-bH = molecular target: T50, 4H1985-bH; assay: two-hybrid library CCNG1
T50 chain: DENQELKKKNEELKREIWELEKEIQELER

Core_IIIN-es_KEEE = molecular target: T51, Core_IIIN-es_KEEE; assay: two-hybrid library CCmax; settings: mean of both orientations
T51 chain: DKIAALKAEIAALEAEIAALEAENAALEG

Core_NINI-es_KEKE = molecular target: T52, Core_NINI-es_KEKE; assay: two-hybrid library CCmax; settings: mean of both orientations
T52 chain: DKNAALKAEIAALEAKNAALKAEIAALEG

Core_NINI-es_KEEE = molecular target: T53, Core_NINI-es_KEEE; assay: two-hybrid library CCmax; settings: mean of both orientations
T53 chain: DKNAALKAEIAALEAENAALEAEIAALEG

Core_IINN-es_KEKE = molecular target: T54, Core_IINN-es_KEKE; assay: two-hybrid library CCmax; settings: mean of both orientations
T54 chain: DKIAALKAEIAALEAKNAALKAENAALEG

Core_IIIN-es_KEKE = molecular target: T55, Core_IIIN-es_KEKE; assay: two-hybrid library CCmax
T55 chain: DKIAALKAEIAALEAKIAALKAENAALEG

Core_INNI-es_KKKE = molecular target: T56, Core_INNI-es_KKKE; assay: two-hybrid library CCmax; settings: mean of both orientations
T56 chain: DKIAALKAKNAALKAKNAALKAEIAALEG

- interaction score (Core_NINI-es_KEKE): 1.98
B5: Core_NINI-es_EKEK (peptide)
chain: DENAALEAKIAALKAENAALEAKIAALKG

- interaction score (Core_NINI-es_KEEE): 2.35
B6: Core_NINI-es_EKKK (peptide)
chain: DENAALEAKIAALKAKNAALKAKIAALKG

- interaction score (Core_IINN-es_KEKE): 2.27
B7: Core_IINN-es_EKEK (peptide)
chain: DEIAALEAKIAALKAENAALEAKNAALKG

- interaction score (Core_INNI-es_KKKE): 2.15
B9: Core_INNI-es_EEEK (peptide)
chain: DEIAALEAENAALEAENAALEAKIAALKG

The remaining lines, values behind:

B1: O1-bS (peptide)
chain: DKNSQLKQENSELEQEISELEWEISQLEQ
- interaction score (O10-bS): -1.15
- interaction score (O4-bS): -1.85
- interaction score (O1-bS): -1.37
- interaction score (O8-bS): -0.794
- interaction score (O16-bS): -1.87
- interaction score (O6-bS): -0.716
- interaction score (O7-bS): -1.5
- interaction score (O11-bS): -0.763
- interaction score (O3-bS): -0.395
- interaction score (O15-bS): -0.914
- interaction score (O9-bS): -1.23
- interaction score (O13-bS): -1.7
- interaction score (O12-bS): -0.754
- interaction score (O2-bS): 2.08
- interaction score (O5-bS): -2
- interaction score (O14-bS): -0.387

B2: Core_IIII-es_EKKK (peptide)
chain: DEIAALEAKIAALKAKIAALKAKIAALKG
- interaction score (Core_IIII-es_KEEE): 1.95

B3: 4H1222-bH (peptide)
chain: DENQELEKENEELKREIWELEKKIQELKR
- interaction score (P8A-bN): 2.04
- interaction score (4H3974-bH): 1.38
- interaction score (4H906-bH): -0.362
- interaction score (4H3628-bH): 0.758
- interaction score (4H3638-bH): -0.0664
- interaction score (4H1449-bH): 1.19
- interaction score (4H1373-bH): -0.384
- interaction score (4H3129-bH): 0.793
- interaction score (4H3414-bH): 0.0236
- interaction score (4H3189-bH): -1.2
- interaction score (4H1338-bH): 0.196
- interaction score (4H3858-bH): -0.605
- interaction score (4H1629-bH): -0.0755
- interaction score (4H584-bH): 0.714
- interaction score (4H1359-bH): 0.083
- interaction score (4H1222-bH): 0.735
- interaction score (4H1710-bH): 2.16
- interaction score (4H570-bH): 0.693
- interaction score (4H619-bH): -1.4
- interaction score (4H850-bH): 0.372
- interaction score (4H3172-bH): -0.665
- interaction score (4H1393-bH): -0.624
- interaction score (4H1544-bH): -2.53
- interaction score (4H3631-bH): 0.426
- interaction score (4H3817-bH): 1.69
- interaction score (4H1804-bH): 0.345
- interaction score (P5bH1): 0.361
- interaction score (4H741-bH): -2.48
- interaction score (4H1348-bH): -0.0221
- interaction score (O8-bN): -2.96
- interaction score (4H1899-bH): 0.852
- interaction score (4H3613-bH): -1.34
- interaction score (4H1985-bH): 1.24

B4: Core_IIIN-es_EKKK (peptide)
chain: DEIAALEAKIAALKAKIAALKAKNAALKG
- interaction score (Core_IIIN-es_KEEE): 2.06

B8: Core_IIIN-es_EKEK (peptide)
chain: DEIAALEAKIAALKAEIAALEAKNAALKG
- interaction score (Core_IIIN-es_KEKE): 2.11
